Literature values as cited in paper PMC3789827.
pKd: −log10 of the molar value.

Columns and labels:
[1] = biological target: BMPR1A ECD (Homo sapiens) (UniProt P36894); test: SPR (Biacore)
[2] = biological target: BMPR1B ECD (Homo sapiens) (UniProt O00238); test: SPR (Biacore)
BMPR1B ECD (Homo sapiens), sequence (O00238 14-126): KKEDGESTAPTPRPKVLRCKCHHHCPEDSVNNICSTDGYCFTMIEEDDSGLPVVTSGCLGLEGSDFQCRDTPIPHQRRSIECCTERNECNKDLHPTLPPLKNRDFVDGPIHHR

GDF5, sequence (P43026 382-501): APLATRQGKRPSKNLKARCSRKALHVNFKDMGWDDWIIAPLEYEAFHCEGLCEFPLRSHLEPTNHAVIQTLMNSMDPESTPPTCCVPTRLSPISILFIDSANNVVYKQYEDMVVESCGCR
BMPR1A ECD (Homo sapiens), sequence (P36894 24-152): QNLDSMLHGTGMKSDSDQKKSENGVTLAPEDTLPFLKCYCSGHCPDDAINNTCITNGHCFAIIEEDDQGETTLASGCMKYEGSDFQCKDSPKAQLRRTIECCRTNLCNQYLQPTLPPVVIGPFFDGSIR

pKd [1]: 7.77
pKd [2]: 8.96
Substance: GDF5 (from UniProt P43026)
